Patent US7037502B2, “Peptide with the amino acid sequence of KVLDGQDP having anti-inflammatory properties” (priority 2001, dated 2006)

Biological target: T1, PLA2 activated by TGase (Cavia cutleri, UniProt P08587)
T1 construct: pre-incubated with 0.001 Unit TGase (Guinea pig liver, Sigma); purchased Sigma
T1 sequence (P08587 2-690 limits assumed): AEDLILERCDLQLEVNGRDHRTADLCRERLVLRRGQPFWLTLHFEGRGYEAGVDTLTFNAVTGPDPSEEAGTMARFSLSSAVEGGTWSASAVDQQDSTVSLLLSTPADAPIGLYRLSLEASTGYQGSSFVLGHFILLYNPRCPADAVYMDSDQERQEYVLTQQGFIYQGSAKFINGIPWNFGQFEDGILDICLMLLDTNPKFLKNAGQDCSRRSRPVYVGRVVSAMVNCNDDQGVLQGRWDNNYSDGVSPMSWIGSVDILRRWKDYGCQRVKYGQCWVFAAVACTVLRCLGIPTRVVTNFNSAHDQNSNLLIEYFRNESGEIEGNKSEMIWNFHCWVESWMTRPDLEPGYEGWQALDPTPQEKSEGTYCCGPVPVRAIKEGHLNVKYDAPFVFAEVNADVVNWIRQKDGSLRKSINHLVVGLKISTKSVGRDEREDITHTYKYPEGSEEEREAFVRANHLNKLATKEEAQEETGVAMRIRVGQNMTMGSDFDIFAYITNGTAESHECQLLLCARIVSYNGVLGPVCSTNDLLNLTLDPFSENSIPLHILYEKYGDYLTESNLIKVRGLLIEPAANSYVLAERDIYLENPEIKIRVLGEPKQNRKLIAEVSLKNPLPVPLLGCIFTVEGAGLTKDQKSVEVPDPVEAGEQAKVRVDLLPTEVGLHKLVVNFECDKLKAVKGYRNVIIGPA
Assay: Inhibitory effect of synthetic peptides on PLA2 activated by TGase in vitro
Type: biochemical, Bovine
Details: peptides 1×10^−8 M, preincubated with 0.001 Unit TGase 15 min at 37° C.
Procedure: A series of synthetic peptides (1×10^−8 M) were pre-incubated with 0.001 Unit TGase (Guinea pig liver, Sigma) in […] of assay buffer (75 mM Tris-Cl, pH 9.0, 5 mM CaCl2, 1 mg/ml fatty acid free bovine serum albumin) for 15 min at 37° C. We employed a negative control as assay buffer without TGase, and a positive control as TGase without peptides. After pre-incubation, […] of 1-acyl-2-[1-^14C] arachidonic acid-glycerophospho -ethanolamine (about 2×10^5 dpm) was added in pre-incubated mixture, and incubated for 1 hr at 37° C. The reaction was terminated by adding 0.75 ml of Dole's reagent, and followed the same procedure described as above.
For inhibitory test of the peptides given, each value is the mean of data from three separate experiments (S.D.<10%). The increased PLA2 activity by TGase was determined as 100% that was 11.22 pmole arachidonyl/hr. % Inhibition was shown in FIG. 3.

| Sequence | PLA2 activity activated by TGase (FIG. 3), result in words |
| --- | --- |
| KVLDGQDP [Peptide R2, synthetic peptide of the invention] | significantly reduced |
| KVLDPVKG [Peptide R1, synthetic peptide of the invention] | significantly reduced |
